Experimental data: patent US20180118791

How the values were obtained:
[1] = system: T1, mutacin 1140 C-terminal carboxyl analog (mu1140-COOH)
T1 sequence: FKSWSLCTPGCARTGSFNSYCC

SFNSYTC = system: T2, SFNSYTC
T2 sequence: SFNSYTC

Work on MutD yielded an Observed mass (Da) after in vitro decarboxylation with MutD, 1 hr (MALDI-TOF) [1] of 2310 Da, an Observed mass (Da) after in vitro decarboxylation with MutD, 10 hr (MALDI-TOF) [1] of 2310 Da and an Observed mass (Da) after in vitro decarboxylation with MutD, 1 hr (MALDI-TOF) (SFNSYTC) of 798 Da.
